# Measured values as given in publication PMC7266990 (2020).
# B1: A. fumigatus HapX^24–158 bZIP peptide (covering the CBC-binding domain, basic region, and coiled-coil domain) (domain or fragment)
# chain: SPSPGPGTPGSITSKEWVIPPRPKPGRKPATDTPPTKRKAQNRAAQRAFRERRAARVNELEEQIKKIEDEHEIHIAAFKEQITNLSREVEQCRSEMTWWRDRCHALEKEVSVERSAKEAIVKEFRSSLSDREAVR
# Molecular target: A. fumigatus wt CBC consisting of the HapB^230–299, HapC^40–137, and HapE^47–164 subunits (Aspergillus fumigatus)
# Experiment: SPR
binder,measurement,value
B1,Kd,1.01 nM
